In patent US20150087807A1:

B1: humanized single chain variable fragment of 1E4 (huscFv1E4) (scFv)
scFv: QCLVESGGGVVQPGRSLRLSCAASGFTFSNYRVHWVRQAPGKGLEWIAVIAVKSDNYGANYAESVKGRFTISRDNSKNTLYLQMNSLRAEDTAVYYCRSTVVVMGDYFAMDYWGQGTSVTVSSGGGGSGGGGSGGGGSDIVLTQSPAFLSVTPGEKVTITCRASQNIGTYIHWYQQKPDQAPKLLIKYASESVSGVPSRFSGSGSGTDFTFTISSLEAEDAATYYCQQSNTWPYTFGGGTKLEIKRADAAPTVSKLAAALEHHHHHH
B2: recombinant murine single chain variable fragment of 1E4 (muscFv1E4) (scFv)
scFv: ECLEESGGGLVRPGNSLKLSCVTSGFTFSNYRVHWLRQPPGKRLEWIAVIAVKSDNYGANYAESVKGRFTISRDDSKSSVYLQMNRLREEDTATYYCRSTVVVMGDYFAMDYWGQGTSVTVSSGGGGSGGGGSGGGGSDIELTQSPAILSVSPGERVSFSCRASQNIGTYIHWYQQRTNGSPRLLIKYASESVSGIPSRFSGRGSGTDFTLSISSVESEDIADYYCQQSNTWPYTFGGGTKLEIKRADAAPTVSKLAAALEHHHHHH

Molecular target: synthetic mimetic peptide m1E41920
Assay: indirect ELISA, m1E41920 peptide coated, nonlinear regression (GraphPad Prism)

| Binder | EC50 [nM] |
| --- | --- |
| B1 | 62.3 |
| B2 | 73.1 |
